Biological target: T1, soluble flag-hBAFF (amino acids L83-L285) (human, UniProt Q9Y275 83-285)
T1 construct: range 83-285; also called FLAG-tagged human BAFF; not shown: FLAG tag
Test: plate assay, 0.5 ug/ml FLAG-hBAFF on pJST535-transfected 293EBNA cells, anti-FLAG M2 and alkaline phosphatase / fast red
Procedure: Full-length human BAFF-R was generated from BJAB polyA+RNA using the SuperscriptII preamplification kit (Life Technologies) to generate the cDNA template and amplified by Pfu1 using primers complementary to the 5′ and 3′ coding sequences of BAFF-R. The PCR product was cloned into CH269, a derivative of pCEP4 (Invitrogen). The resultant clone was termed pJST535. Human embryonic kidney cells containing the EBNA-1 gene (293EBNA) were seeded into 6 well plates coated with fibronectin and transfected by lipofectamine (Life Technologies) with either pJST535 at various dilutions or CH269 as a background control. At 48 hrs post transfection, transfected cells were assayed for their ability to bind soluble flag-hBAFF(amino acids L83-L285) as follows. All incubations were at room temperature. Conditioned media was aspirated from the wells and the cells washed with BHA buffer (20 mM HEPES pH7.0, 0.5mg/ml BSA, 0.1% NaN3) and incubated with 0.5 ug/ml FLAG-hBAFF diluted in PBS containing 1 mM MgCl2, 1 mM CaCl2 and 0.1% NaN3. After an 1 hr. incubation, the BAFF solution was removed and the cells were washed with BHA. The cells were next incubated for 30 min. in a PBS solution containing 1 ug/ml of the anti-FLAG monoclonal antibody, M2 (Sigma). This solution was aspirated and the cells were washed with BHA. […]

T1 sequence (Q9Y275 83-285 limits assumed): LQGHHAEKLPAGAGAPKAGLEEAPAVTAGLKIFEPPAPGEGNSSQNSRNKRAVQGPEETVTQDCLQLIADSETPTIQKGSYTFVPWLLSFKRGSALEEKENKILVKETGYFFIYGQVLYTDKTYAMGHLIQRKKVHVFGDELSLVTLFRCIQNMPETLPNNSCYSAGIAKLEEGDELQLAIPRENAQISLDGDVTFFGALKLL

binding result: binds
B1: full-length human BAFF-R (BCMA) expressed on 293EBNA cells transfected with pJST535 (receptor)
chain: MLQMAGQCSQNEYFDSLLHACIPCQLRCSSNTPPLTCQRYCNASVTNSVKGTNAILWTCLGLSLIISLAVFVLMFLLRKISSEPLKDEFKNTGSGLLGMANIDLEKSRTGDEIILPRGLEYTVEECTCEDCIKSKPKVDSDHCFPLPAMEEGATILVTTKTNDYCKSLPAALSATEIEKSISAR

— patent publication US20020165156A1 (Biogen, published 2002)
